Results on three molecules are retold here after US20130203116, “EXPRESSION AND PURIFICATION OF FUSION PROTEIN WITH MULTIPLE MBP TAGS” (The Regents of the University of California 1111 Franklin …, published 2013).

In data set [1] the target is T1, BRCA2 (2XMBP-BRCA2, full length) (Homo sapiens, UniProt P51587 P51587:1-3418). Briefly: EMSA; strongly preferred over dsDNA; 1 mM MgCl2, 2 mM CaCl2, 2 mM ATP, 37 C. Conditions: tags: N-terminal 2xMBP with PreScission site, expressed in human 293T cells, amylose + HiTrap Q.
T1 sequence (P51587 whole entry, one chain of several): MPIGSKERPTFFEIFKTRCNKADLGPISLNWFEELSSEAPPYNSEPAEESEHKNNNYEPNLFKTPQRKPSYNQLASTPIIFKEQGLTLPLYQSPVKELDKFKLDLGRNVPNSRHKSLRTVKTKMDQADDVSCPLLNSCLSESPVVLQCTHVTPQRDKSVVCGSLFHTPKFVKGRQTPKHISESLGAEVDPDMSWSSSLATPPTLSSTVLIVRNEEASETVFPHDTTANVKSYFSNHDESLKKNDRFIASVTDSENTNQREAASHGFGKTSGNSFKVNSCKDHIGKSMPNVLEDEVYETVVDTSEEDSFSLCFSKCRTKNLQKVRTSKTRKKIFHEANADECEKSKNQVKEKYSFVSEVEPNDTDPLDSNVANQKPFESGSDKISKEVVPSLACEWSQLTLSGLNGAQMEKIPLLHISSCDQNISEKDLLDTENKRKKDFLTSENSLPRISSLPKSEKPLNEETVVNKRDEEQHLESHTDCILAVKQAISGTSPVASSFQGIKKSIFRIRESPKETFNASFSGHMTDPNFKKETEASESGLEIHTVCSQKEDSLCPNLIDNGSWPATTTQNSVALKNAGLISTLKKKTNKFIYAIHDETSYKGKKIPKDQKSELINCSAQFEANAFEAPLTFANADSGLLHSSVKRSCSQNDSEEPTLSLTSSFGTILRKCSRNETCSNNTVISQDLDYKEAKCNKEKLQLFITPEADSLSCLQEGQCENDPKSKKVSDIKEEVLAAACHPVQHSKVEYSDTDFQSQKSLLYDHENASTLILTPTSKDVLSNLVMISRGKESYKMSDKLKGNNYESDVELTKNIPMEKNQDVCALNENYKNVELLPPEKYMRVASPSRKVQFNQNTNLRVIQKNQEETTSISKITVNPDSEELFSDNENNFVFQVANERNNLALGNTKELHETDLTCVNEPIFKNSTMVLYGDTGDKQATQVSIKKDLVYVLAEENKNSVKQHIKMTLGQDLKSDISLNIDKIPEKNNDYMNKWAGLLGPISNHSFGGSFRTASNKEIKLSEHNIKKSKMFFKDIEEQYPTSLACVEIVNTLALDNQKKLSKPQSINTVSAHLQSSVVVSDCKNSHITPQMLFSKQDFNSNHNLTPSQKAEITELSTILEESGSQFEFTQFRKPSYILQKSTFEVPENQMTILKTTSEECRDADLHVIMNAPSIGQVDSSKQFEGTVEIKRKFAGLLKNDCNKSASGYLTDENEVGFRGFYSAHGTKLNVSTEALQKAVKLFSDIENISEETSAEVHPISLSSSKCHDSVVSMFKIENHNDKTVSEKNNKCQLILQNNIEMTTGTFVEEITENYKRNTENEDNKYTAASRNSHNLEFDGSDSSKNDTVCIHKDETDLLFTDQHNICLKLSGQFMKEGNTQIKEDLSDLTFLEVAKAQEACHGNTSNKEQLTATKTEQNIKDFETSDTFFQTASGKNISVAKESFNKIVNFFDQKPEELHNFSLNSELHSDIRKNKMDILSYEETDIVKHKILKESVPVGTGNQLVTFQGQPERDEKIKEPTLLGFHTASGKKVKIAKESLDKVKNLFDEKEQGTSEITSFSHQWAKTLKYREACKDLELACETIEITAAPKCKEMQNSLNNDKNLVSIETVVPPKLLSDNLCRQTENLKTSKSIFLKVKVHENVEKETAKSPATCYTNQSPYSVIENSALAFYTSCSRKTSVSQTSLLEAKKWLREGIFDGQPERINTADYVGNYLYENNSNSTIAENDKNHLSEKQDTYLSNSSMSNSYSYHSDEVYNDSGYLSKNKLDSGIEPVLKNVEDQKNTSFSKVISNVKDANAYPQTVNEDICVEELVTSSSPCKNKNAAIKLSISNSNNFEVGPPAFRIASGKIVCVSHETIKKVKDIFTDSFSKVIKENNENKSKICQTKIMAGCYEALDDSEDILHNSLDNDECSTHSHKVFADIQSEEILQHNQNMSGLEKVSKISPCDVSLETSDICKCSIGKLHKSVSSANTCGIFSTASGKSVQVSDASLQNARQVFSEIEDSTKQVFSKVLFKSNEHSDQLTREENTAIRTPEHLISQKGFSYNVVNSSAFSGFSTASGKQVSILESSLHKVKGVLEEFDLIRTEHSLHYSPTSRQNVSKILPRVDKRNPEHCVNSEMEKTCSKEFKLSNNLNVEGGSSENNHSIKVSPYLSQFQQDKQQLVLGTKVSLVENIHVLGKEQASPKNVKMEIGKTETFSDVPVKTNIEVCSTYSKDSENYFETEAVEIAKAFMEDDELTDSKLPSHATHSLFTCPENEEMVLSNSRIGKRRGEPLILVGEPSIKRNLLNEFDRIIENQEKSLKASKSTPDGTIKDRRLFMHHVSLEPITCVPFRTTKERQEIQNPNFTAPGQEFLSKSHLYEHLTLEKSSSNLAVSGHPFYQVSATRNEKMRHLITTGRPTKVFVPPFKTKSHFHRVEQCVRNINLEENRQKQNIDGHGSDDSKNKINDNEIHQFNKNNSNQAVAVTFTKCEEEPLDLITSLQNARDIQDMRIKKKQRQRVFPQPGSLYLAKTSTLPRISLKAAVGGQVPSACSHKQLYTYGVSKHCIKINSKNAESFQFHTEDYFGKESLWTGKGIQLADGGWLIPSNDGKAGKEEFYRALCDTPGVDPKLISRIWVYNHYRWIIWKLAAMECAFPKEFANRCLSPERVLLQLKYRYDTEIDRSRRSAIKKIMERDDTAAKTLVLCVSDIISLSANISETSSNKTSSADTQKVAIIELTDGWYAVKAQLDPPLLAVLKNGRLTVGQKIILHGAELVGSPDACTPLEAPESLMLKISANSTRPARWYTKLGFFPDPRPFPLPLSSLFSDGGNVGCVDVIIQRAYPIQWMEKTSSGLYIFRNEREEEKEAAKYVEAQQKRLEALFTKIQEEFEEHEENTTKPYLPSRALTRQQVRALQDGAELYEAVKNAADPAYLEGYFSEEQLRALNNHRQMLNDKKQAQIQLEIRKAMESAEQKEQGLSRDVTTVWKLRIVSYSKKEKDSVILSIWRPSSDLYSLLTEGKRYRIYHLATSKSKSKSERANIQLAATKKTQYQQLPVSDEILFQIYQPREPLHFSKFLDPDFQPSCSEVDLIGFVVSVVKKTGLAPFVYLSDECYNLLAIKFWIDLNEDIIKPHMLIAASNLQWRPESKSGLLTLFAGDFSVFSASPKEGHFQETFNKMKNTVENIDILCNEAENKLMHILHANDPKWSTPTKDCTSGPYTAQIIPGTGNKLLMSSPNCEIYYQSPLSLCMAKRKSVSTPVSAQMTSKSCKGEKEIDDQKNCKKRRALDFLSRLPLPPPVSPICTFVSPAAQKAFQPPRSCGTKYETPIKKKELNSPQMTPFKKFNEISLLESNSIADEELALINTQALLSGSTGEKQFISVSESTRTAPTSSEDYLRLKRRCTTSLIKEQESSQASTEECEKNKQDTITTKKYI
The target of data set [2] is T1, BRCA2 (2XMBP-BRCA2, full length). Put plainly: EMSA; strongly preferred over dsDNA; slight preference over ssDNA at high salt (0.5-1 M NaCl); 1 mM MgCl2, 2 mM CaCl2, 2 mM ATP, 37 C. Conditions: tags: N-terminal 2xMBP with PreScission site; expressed in human 293T cells, amylose + HiTrap Q; label: 5'-32P on 167-mer (EMSA); 42 bp duplex with 125 nt 3' ssDNA overhang.

B1: RJ-167-mer ssDNA (ssDNA)
DNA: CTGCTTTATCAAGATAATTTTTCGACTCATCAGAAATATCCGTTTCCTATATTTATTCCTATTATGTTTTATTCATTTACTTATTCTTTATGTTCATTTTTTATATCCTTTACTTTATTTTCTCTGTTTATTCATTTACTTATTTTGTATTATCCTTATCTTATTTA
Regarding B1, the binding result in data set [1] (label: 5'-32P (EMSA)) is listed as “binds”.

B2: 3' tailed DNA (RJ-167-mer/RJ-PHIX-42-1) (mixed)
DNA 1: B1 DNA
DNA 2: CGGATATTTCTGATGAGTCGAAAAATTATCTTGATAAAGCAG
Turning to B2, the binding result in data set [2] is given as “binds”.

B3: 5' tailed DNA (RJ-5'TAIL-167-mer/RJ-PHIX-42-1) (mixed)
DNA 1: ATTTATTCTATTCCCTTTATTTTCTCTGTTTATTCATTTACTTATTTTGTATTAATTTCCTATATTTTTTACTTGTATTTCTTATTCATTTACTTATTTTGTATTATCCTTATTTATATCCTTTCTGCTTTATCAAGATAATTTTTCGACTCATCAGAAATATCCG
DNA 2: B2 DNA 2
Consider B3, for which the binding result in data set [1] (label: 5'-32P on 167-mer (EMSA), 42 bp duplex with 5' ssDNA overhang) is “binds”.
